We go through 84 variants from the RNAGym collection of RNA variant scans (doi:10.1073/pnas.2313332121).

This sample holds only a part of the variants without activity.

B1: TPR 5TU (parent)
chain: GGAUCUUCUCGAUCUAACAAAAAAGACAAAUCUGCCACAAAGCUUGAGAGCAUCUUCGGAUGCAGAGGCGGCAGCCUUCGGUGGCGCGAUAGCGCCAACGUUCUCAACUAUGACACGCAAAACGCGUGCUCCGUUGAAUGGAGUUUAUCAUG

The variants in the data set derive from B1. The experiment in a line: polymerase ribozyme fitness, log enrichment relative to wild type (log ratio); higher = more active; in vitro selection for triplet polymerase activity. A digest of the protocol: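 Libraries of mutants in each subunit of a heterodimeric triplet polymerase ribozyme were generated by PCR and transcribed. In triplicate, each went through one in vitro selection round: annealing with biotinylated primer, partner subunit and triplets; frozen incubation at −7 °C; gel excision of extended constructs; streptavidin-bead capture; RT-PCR. Fitness, taken from Illumina sequencing of input and output libraries, is the logarithm of a genotype's enrichment over wild-type enrichment, averaged across replicates with inverse-variance weights. The logarithm is base 2, and genotypes needed ≥10 input reads and ≥1 read per output to be kept.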
With A52G C87U C116U C149G, the “polymerase ribozyme fitness (log ratio)” value was -3.76.

Regarding U53A A122U A138U, the “polymerase ribozyme fitness (log ratio)” value is -4.07. Regarding C51A A91G C95U A97G A119U, the “polymerase ribozyme fitness (log ratio)” value was not above -4.2. Under U53A C85U C105G stands not above -4.2; under U53A G65C C85G A137U G140C, not above -4.2; under U53A G84A C87U A106G, -3.23. Under A52C A115G stands -2.09; under C51U C87A A91U U144G, not above -4.2; under G50U C85A A97U G140A, not above -4.2. As for A52U A150C, the “polymerase ribozyme fitness (log ratio)” value is -4.03.

As for U53A U55A C129U, the “polymerase ribozyme fitness (log ratio)” value is -3.06.

U53A C54A G58C A64C G126A U135C A138C: the “polymerase ribozyme fitness (log ratio)” value was not above -4.2. Under U53A G74A U145G stands not above -4.2; under A52U G86C G88A C105A G141U, not above -4.2. Under A52C G58U C75A C93A stands not above -4.2; under C51A G59U A64G C85U C99G A113G A120G U127G G140U U148A, not above -4.2. In the case of C51U U56A A91G, the “polymerase ribozyme fitness (log ratio)” value was -3.44.

For C51A C57A C95A G126A A147G, the “polymerase ribozyme fitness (log ratio)” value was not above -4.2. Under A52U C93A U109C U111G G140C G152A stands not above -4.2; under U53A A91G, -3.09. Then G50U G136U C149G, with -4.16; and A52U G59C U101G A122U U144C, with -2.67; and A52U A107C, with not above -4.2. Take A52U C105U: the “polymerase ribozyme fitness (log ratio)” value was -1.7. As to A52C C69A C105U, the “polymerase ribozyme fitness (log ratio)” value is -3.13. For the variant U53A G143U, the “polymerase ribozyme fitness (log ratio)” value was -3.09.

As for U53A G141A, the “polymerase ribozyme fitness (log ratio)” value is -1.9. As for A52G U53A, the “polymerase ribozyme fitness (log ratio)” value is -0.907.

Take G50U G92C: the “polymerase ribozyme fitness (log ratio)” value is -0.0562. Take U53A C75G: the “polymerase ribozyme fitness (log ratio)” value is not above -4.2. Regarding U53A C85A A106G U144G, the “polymerase ribozyme fitness (log ratio)” value is -2.88. Under A52U G140C stands not above -4.2; under A52U G81U C96U C114A A142U, -3.93; under U53A G67C C85U U109G A115U, not above -4.2.

In the case of C51U A150G, the “polymerase ribozyme fitness (log ratio)” value is -1.14.

A52G A119G: the “polymerase ribozyme fitness (log ratio)” value is -0.813. Consider A52U G84U, for which the “polymerase ribozyme fitness (log ratio)” value is -2.48. Under A52G U55A U90G C96U C103A C131G stands not above -4.2. Regarding A52G G65A U145A, the “polymerase ribozyme fitness (log ratio)” value was -1.38.

For A52C G92U C116G, the “polymerase ribozyme fitness (log ratio)” value is -1.7. As for U53A C93A C95G, the “polymerase ribozyme fitness (log ratio)” value was not above -4.2. Under A52C U56A G86A U90A A107C stands not above -4.2.

With A52U C57A C63U G94U A150G, the “polymerase ribozyme fitness (log ratio)” value is not above -4.2.

For U53A C54G G67C C118U U130A, the “polymerase ribozyme fitness (log ratio)” value is not above -4.2. Then G50U G83U G128C, with -3.62. Then U53A C85A A89C, with -3.89. Then A52G G59A C75U, with -0.737; and G50U C87U A115U U144A, with -3.8; and A52C C57U G80C A98U, with -2.02. For the variant C51U G59C, the “polymerase ribozyme fitness (log ratio)” value was found to be 0.723. Then U53A G86U A142U, with not above -4.2. As to A52C U53A C85U A107U A119C C125U, the “polymerase ribozyme fitness (log ratio)” value was not above -4.2. Regarding C51A U55G G88C C95A A119C, the “polymerase ribozyme fitness (log ratio)” value was not above -4.2. As for C51U A60G C79G C85G C129A, the “polymerase ribozyme fitness (log ratio)” value was not above -4.2. On to C51U U53A C93A, for which the “polymerase ribozyme fitness (log ratio)” value was -4.05. Regarding A52C C87A G88U U135C, the “polymerase ribozyme fitness (log ratio)” value was not above -4.2. Under A52G G80U stands -3.34; under C51U C87A G141U, not above -4.2; under U53A C95A, -0.902. C51U G67A U77G C116G G126A C129A: the “polymerase ribozyme fitness (log ratio)” value is not above -4.2. As to A52U C85G C123A G140A, the “polymerase ribozyme fitness (log ratio)” value is not above -4.2. Regarding A52G G58C, the “polymerase ribozyme fitness (log ratio)” value came out at 0.885. As to A52C C76U U101G, the “polymerase ribozyme fitness (log ratio)” value is -4.01.

With A52C G83U U145A, the “polymerase ribozyme fitness (log ratio)” value was -1.8. Under C51G U90G stands not above -4.2. Under A52C C93U stands -2.33; under U53A G100A, not above -4.2; under U53A G86C A91U G136A, not above -4.2. Under C51U G94U C114A G140A stands not above -4.2. Turning to U53A A91G U144G, the “polymerase ribozyme fitness (log ratio)” value is -2.54.

In the case of G50U G94U C103U, the “polymerase ribozyme fitness (log ratio)” value is -2.08.

With U53A A60U U77C G80C A91G A142C, the “polymerase ribozyme fitness (log ratio)” value was not above -4.2. With A52C U56C G84U, the “polymerase ribozyme fitness (log ratio)” value is -4.01. For U53A G133U, the “polymerase ribozyme fitness (log ratio)” value is -3.53.

With A52G A113U A150C, the “polymerase ribozyme fitness (log ratio)” value is not above -4.2. On to U53A C69G G83A G117U U145C, for which the “polymerase ribozyme fitness (log ratio)” value was -3.13.

For A52G C131A, the “polymerase ribozyme fitness (log ratio)” value was -1.46.

With C51U G70C C93G, the “polymerase ribozyme fitness (log ratio)” value was not above -4.2. G50U G81A C93G: the “polymerase ribozyme fitness (log ratio)” value is -3.96. Then A52C C103U, with -0.611; and C51G A60G A73G C123G, with -3.71; and U53A C79A, with not above -4.2. Then A52G G59C A60C C96G G126A A142U, with not above -4.2; and A52G G74A A137U, with not above -4.2.
